The chains are these.
B1: Tumor necrosis factor ligand superfamily member 14 (Homo sapiens), O43557 (parent)
chain: MEESVVRPSVFVVDGQTDIPFTRLGRSHRRQSCSVARVGLGLLLLLMGAGLAVQGWFLLQLHWRLGEMVTRLPDGPAGSWEQLIQERRSHEVNPAAHLTGANSSLTGSGGPLLWETQLGLAFLRGLSYHDGALVVTKAGYYYIYSKVQLGGVGCPLGLASTITHGLYKRTPRYPEELELLVSQQSPCGRATSSSRVWWDSSFLGGVVHLEAGEKVVVRVLDERLVRLRDGTRSYFGAFMV

Variants of B1 are the subject of the experiment. Conditions: with tnr3_mouse Ltbr.
For A138T;S160G;D221G;E222K, the “effect of a mutation on the interaction” value is reported as “causing an interaction”.

(Values after IntAct's records for PubMed 26977880.)
